Measured values reported in patent publication US20210063414A1, “METHODS FOR PREVENTING AND/OR TREATING BONE LOSS CONDITIONS BY MODULATING IRISIN” (Dana-Farber Cancer Institute, Inc., priority 2018, published 2021).

Molecular target: T1, MLO-Y4 cell surface proteins (Mus musculus, UniProt E9PW83)
T1 construct: endogenous in cells; host or cells: MLO-Y4
T1 sequence (E9PW83 1-1143): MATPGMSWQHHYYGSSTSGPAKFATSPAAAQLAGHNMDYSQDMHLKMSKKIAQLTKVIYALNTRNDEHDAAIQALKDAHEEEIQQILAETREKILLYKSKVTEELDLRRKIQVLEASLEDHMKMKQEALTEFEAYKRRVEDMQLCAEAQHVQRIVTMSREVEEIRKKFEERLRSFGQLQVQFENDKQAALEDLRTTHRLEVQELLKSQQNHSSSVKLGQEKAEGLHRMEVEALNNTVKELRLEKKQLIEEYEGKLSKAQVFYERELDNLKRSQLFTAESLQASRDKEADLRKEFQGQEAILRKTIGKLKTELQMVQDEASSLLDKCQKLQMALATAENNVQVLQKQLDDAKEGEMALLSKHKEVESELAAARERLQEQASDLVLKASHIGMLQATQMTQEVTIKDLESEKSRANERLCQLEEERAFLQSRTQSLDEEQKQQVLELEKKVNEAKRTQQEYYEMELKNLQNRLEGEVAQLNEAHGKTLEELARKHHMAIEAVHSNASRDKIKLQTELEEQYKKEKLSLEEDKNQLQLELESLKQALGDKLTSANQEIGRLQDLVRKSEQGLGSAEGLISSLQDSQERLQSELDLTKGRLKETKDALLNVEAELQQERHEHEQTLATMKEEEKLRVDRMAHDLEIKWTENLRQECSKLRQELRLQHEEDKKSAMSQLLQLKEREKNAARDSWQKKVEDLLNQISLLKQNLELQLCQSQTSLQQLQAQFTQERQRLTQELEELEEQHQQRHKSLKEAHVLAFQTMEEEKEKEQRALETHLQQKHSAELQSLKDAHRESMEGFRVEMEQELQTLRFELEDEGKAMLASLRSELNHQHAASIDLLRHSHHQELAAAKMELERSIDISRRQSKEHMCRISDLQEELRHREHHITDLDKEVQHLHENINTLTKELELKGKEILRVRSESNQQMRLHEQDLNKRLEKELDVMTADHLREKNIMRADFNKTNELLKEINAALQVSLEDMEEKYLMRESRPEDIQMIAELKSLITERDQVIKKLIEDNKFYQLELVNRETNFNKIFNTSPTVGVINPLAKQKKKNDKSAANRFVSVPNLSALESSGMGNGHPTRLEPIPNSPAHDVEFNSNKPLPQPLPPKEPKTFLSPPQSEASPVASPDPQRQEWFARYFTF
Assay: Crosslinking/co-immunoprecipitation/mass spectrometry (TMT quantitative proteomics) to identify irisin receptors
Assay type: binding
Conditions: co-precipitated protein Fam184a (E9PW83_MOUSE)
Method in brief: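 Relative protein abundance came from 6-plex TMT MS3 quantitation on an Orbitrap Fusion Lumos, after in-gel trypsin digestion of Coomassie-stained SDS-PAGE lanes. Input was a Ni-NTA pulldown (250 mM imidazole elution) of lysates from murine MLO-Y4 cells. These cells were treated on ice with His-tagged irisin or adipsin (10 nM, 20 min) in serum-free medium, then crosslinked with 1.5 mM DTSSP for 30 min.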

For adipsin, the TMT signal-to-noise ratio was 877.972.
